This is an account of results in IntAct's records for PubMed 15020713.

B1: Rabenosyn-5 (Homo sapiens), Q9H1K0 (parent)
chain: MASLDDPGEVREGFLCPLCLKDLQSFYQLHSHYEEEHSGEDRDVKGQIKSLVQKAKKAKDRLLKREGDDRAESGTQGYESFSYGGVDPYMWEPQELGAVRSHLSDFKKHRAARIDHYVVEVNKLIIRLEKLTAFDRTNTESAKIRAIEKSVVPWVNDQDVPFCPDCGNKFSIRNRRHHCRLCGSIMCKKCMELISLPLANKLTSASKESLSTHTSPSQSPNSVHGSRRGSISSMSSVSSVLDEKDDDRIRCCTHCKDTLLKREQQIDEKEHTPDIVKLYEKLRLCMEKVDQKAPEYIRMAASLNAGETTYSLEHASDLRVEVQKVYELIDALSKKILTLGLNQDPPPHPSNLRLQRMIRYSATLFVQEKLLGLMSLPTKEQFEELKKKRKEEMERKRAVERQAALESQRRLEERQSGLASRAANGEVASLRRGPAPLRKAEGWLPLSGGQGQSEDSDPLLQQIHNITSFIRQAKAAGRMDEVRTLQENLRQLQDEYDQQQTEKAIELSRRQAEEEDLQREQLQMLRERELEREREQFRVASLHTRTRSLDFREIGPFQLEPSREPRTHLAYALDLGSSPVPSSTAPKTPSLSSTQPTRVWSGPPAVGQERLPQSSMPQQHEGPSLNPFDEEDLSSPMEEATTGPPAAGVSLDPSARILKEYNPFEEEDEEEEAVAGNPFIQPDSPAPNPFSEEDEHPQQRLSSPLVPGNPFEEPTCINPFEMDSDSGPEAEEPIEEELLLQQIDNIKAYIFDAKQCGRLDEVEVLTENLRELKHTLAKQKGGTD
partner: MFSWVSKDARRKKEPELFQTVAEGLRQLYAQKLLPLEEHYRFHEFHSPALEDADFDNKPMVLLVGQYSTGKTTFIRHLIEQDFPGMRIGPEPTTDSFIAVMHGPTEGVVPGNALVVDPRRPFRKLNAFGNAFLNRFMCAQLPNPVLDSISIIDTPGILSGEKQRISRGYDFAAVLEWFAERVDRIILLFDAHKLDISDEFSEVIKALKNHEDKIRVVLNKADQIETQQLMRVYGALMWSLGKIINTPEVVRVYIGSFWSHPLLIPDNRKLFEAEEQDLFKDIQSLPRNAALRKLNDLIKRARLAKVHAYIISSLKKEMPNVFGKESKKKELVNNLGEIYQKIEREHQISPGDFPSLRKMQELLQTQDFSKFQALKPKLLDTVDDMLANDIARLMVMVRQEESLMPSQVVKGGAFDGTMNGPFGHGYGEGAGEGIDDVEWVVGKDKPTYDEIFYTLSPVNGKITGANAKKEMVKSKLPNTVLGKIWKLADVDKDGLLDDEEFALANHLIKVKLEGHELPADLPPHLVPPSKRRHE
B2: EH domain-containing protein 1 (Homo sapiens), Q9H4M9 (parent)
chain: B1 partner
partner: B1 chain

In the first assay the parent is B1. Conditions: with ehd1_human EHD1, Q9H4M9.
As to N626A;F628A;N662A;F664A, the “effect of a mutation on the interaction” value is “disrupting interaction strength”.
Still for that read-out and setting: under N662A;F664A stands “decreasing interaction strength”; under N626A;F628A, “decreasing interaction strength”.

In the next assay the parent is B2. Conditions: with rbns5_human RBSN.
With W485A, the “effect of a mutation on the interaction” value is given as “disrupting interaction”.
